In patent US20150266977A1 (AbbVie / Abbott, published 2015):
Substitutions are numbered along the chain they refer to.

T1: recombinant rat sclerostin (rat, UniProt Q99P67 24-213, limits assumed)
T1 sequence (looked up): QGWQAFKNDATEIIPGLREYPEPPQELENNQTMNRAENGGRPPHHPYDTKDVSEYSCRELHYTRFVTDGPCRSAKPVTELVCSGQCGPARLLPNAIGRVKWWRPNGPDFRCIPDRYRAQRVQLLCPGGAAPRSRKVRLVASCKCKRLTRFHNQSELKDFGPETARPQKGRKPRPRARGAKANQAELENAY

T2: recombinant mouse sclerostin (mouse, UniProt Q99P68 24-211)
T2 construct: also called ms sclerostin; murine sclerostin
T2 sequence (looked up): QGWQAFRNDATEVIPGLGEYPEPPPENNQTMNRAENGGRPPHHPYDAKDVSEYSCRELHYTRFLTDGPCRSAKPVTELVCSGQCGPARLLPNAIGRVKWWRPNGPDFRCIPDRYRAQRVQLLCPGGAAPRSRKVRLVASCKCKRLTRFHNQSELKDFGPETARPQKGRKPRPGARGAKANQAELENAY

T3: recombinant human sclerostin (human, UniProt Q9BQB4 24-213)
T3 construct: biotinylated in the ELISAs; also called hu sclerostin; hu scl
T3 sequence: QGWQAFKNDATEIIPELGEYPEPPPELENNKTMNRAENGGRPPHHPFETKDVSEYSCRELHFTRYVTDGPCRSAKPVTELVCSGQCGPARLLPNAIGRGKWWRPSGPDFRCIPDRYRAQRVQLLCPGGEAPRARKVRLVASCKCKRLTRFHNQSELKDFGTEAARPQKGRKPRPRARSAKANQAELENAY

B1: AE10-6-AM3 (antibody, V domains shown)
VH: EVQLVQSGAEVKKPGASVKVSCKVSGYTLTELSMHWVRQAPGKGLEWMGGFDPEDGETIYAQKFQGRVTMTEDTSTDTAYMELSSLRSEDTAVYYCATDSAGYWYKFFQHWGQGTLVTVSS
VL: QAVVTQEPSLTVSPGGTVTLTCGSSTGAVTIDHYPYWFQQKPGQAPRTLISDTDDKHSWTPARFSGSLLGGKAALTLSGAQPEDEAEYYCLLDYGGTFVFGGGTKLTVL
notes: converted into IgG
B2: AE10-6-AM8 (antibody, V domains shown)
VH: B1 VH with T30S, M34I
VL: B1 VL with T97S
notes: converted into IgG
B3: AE10-6-AM5 (antibody, V domains shown)
VH: B1 VH with T30S, D55G, S100A, A101G
VL: B1 VL with A28T, D93F, F98V
notes: converted into IgG
B4: AE10-6-AM7 (antibody, V domains shown)
VH: B1 VH with S100T, A101V, Y105E
VL: B1 VL with A28T, T97R
notes: converted into IgG; also called rHC + LC S4 clone 131
B5: AE10-6-AM6 (antibody, V domains shown)
VH: B1 VH with T30S, D55G, S100T, A101E, Y105E
VL: B1 VL
notes: converted into IgG; also called rHC + LC S4 clone 119
B6: AE10-6-AM2 (antibody, V domains shown)
VH: B1 VH with D55A, S100G, A101E, G102L
VL: B1 VL with D32W, D54N, T97S
notes: converted into IgG; also called rHC + LC S4 clone 102
B7: DVD2658 (bispecific antibody, human IgG1, kappa, L234A L235A)
heavy: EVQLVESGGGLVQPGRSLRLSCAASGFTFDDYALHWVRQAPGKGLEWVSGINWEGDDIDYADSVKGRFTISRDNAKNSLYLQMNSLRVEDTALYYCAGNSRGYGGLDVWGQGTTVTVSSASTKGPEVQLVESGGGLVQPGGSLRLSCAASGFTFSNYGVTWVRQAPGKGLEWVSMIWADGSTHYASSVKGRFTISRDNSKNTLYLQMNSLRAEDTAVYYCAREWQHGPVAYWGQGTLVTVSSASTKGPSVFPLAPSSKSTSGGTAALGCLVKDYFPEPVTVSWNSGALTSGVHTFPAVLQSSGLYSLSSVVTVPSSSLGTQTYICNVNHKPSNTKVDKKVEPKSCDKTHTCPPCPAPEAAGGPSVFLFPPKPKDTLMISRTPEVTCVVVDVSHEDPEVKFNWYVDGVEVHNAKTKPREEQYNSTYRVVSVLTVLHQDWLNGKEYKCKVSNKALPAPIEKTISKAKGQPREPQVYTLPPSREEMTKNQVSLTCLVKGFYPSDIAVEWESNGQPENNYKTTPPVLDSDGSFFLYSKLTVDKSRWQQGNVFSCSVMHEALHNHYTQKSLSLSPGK
light: QSVLTQPPSASGTPGQRVTISCSGSSSNIGRNTVNWYQQLPGTAPKLLIYSNNQRPSGVPDRFSGSKSGTSASLAISGLQSEDEADYYCAAWDDNLESYVFGGGTKLTVLGQPKAAPDIQMTQSPSSLSASVGDRVTITCRASQLVSSAVAWYQQKPGKAPKLLIYWASARHTGVPSRFSGSGSGTDFTLTISSLQPEDFATYYCQQHYKTPFTFGQGTKLEIKRTVAAPSVFIFPPSDEQLKSGTASVVCLLNNFYPREAKVQWKVDNALQSGNSQESVTEQDSKDSTYSLSSTLTLSKADYEKHKVYACEVTHQGLSSPVTKSFNRGEC
notes: DVD-Ig: outer MSL10-AM1.2, inner AB436
B8: MAK195-21-SS-AE10-6 AM7 (bispecific antibody, human IgG1, lambda, L234A L235A)
heavy: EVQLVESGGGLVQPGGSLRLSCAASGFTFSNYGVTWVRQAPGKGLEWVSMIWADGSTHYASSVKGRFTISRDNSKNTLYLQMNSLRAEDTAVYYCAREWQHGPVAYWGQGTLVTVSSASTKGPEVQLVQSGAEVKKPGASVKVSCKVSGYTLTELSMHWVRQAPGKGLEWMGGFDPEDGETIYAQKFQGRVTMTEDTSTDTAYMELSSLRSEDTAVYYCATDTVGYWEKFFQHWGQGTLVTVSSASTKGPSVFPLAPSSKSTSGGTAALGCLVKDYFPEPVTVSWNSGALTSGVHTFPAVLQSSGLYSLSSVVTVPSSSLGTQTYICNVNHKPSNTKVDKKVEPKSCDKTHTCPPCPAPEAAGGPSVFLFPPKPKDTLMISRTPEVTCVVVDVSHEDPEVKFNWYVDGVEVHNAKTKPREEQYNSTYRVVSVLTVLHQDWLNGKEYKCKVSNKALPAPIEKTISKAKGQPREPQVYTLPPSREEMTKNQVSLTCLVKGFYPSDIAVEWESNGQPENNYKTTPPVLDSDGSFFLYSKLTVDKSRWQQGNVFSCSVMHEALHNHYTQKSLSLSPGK
light: DIQMTQSPSSLSASVGDRVTITCRASQLVSSAVAWYQQKPGKAPKLLIYWASARHTGVPSRFSGSGSGTDFTLTISSLQPEDFATYYCQQHYKTPFTFGQGTKLEIKRTVAAPQAVVTQEPSLTVSPGGTVTLTCGSSTGTVTIDHYPYWFQQKPGQAPRTLISDTDDKHSWTPARFSGSLLGGKAALTLSGAQPEDEAEYYCLLDYGGRFVFGGGTKLTVLGQPKAAPSVTLFPPSSEELQANKATLVCLISDFYPGAVTVAWKADSSPVKAGVETTTPSKQSNNKYAASSYLSLTPEQWKSHRSYSCQVTHEGSTVEKTVAPTECS
notes: DVD-Ig: outer MAK195-21, inner AE10-6 AM7
B9: DVD2657 (bispecific antibody, human IgG1, kappa, L234A L235A)
heavy: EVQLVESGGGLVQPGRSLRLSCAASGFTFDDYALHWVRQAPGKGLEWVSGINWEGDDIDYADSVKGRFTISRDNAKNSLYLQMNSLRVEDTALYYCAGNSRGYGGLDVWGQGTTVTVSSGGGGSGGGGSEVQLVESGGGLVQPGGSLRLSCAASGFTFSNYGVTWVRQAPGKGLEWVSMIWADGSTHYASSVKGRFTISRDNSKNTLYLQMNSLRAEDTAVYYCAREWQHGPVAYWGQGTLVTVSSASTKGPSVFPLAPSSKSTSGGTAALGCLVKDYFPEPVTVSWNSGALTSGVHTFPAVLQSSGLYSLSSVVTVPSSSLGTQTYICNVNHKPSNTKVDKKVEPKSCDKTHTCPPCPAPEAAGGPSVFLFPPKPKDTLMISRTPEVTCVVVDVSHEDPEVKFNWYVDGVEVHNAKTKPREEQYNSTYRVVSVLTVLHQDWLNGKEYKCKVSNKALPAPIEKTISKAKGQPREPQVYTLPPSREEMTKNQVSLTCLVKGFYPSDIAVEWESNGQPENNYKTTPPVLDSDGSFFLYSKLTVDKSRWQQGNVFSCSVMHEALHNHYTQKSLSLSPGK
light: QSVLTQPPSASGTPGQRVTISCSGSSSNIGRNTVNWYQQLPGTAPKLLIYSNNQRPSGVPDRFSGSKSGTSASLAISGLQSEDEADYYCAAWDDNLESYVFGGGTKLTVLGGGSGGGGSGDIQMTQSPSSLSASVGDRVTITCRASQLVSSAVAWYQQKPGKAPKLLIYWASARHTGVPSRFSGSGSGTDFTLTISSLQPEDFATYYCQQHYKTPFTFGQGTKLEIKRTVAAPSVFIFPPSDEQLKSGTASVVCLLNNFYPREAKVQWKVDNALQSGNSQESVTEQDSKDSTYSLSSTLTLSKADYEKHKVYACEVTHQGLSSPVTKSFNRGEC
notes: as for B7
B10: MAK195-21-GS-AE10-6 AM3 (bispecific antibody, human IgG1, lambda, L234A L235A)
heavy: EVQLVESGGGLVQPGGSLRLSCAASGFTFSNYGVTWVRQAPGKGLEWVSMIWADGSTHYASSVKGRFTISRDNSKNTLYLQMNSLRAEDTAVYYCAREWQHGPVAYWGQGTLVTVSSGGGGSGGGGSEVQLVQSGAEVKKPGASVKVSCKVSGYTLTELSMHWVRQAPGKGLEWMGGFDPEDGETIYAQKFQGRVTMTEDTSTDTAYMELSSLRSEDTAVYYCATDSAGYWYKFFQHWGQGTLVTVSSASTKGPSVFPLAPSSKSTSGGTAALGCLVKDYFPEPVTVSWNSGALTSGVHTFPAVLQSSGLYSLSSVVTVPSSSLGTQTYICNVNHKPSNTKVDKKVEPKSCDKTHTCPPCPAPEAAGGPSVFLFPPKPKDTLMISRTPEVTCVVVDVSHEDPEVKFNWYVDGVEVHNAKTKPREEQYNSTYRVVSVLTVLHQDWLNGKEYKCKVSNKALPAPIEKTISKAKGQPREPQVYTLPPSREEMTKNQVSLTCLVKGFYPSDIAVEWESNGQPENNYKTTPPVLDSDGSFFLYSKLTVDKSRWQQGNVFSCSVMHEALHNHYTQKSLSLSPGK
light: DIQMTQSPSSLSASVGDRVTITCRASQLVSSAVAWYQQKPGKAPKLLIYWASARHTGVPSRFSGSGSGTDFTLTISSLQPEDFATYYCQQHYKTPFTFGQGTKLEIKGGSGGGGSGQAVVTQEPSLTVSPGGTVTLTCGSSTGAVTIDHYPYWFQQKPGQAPRTLISDTDDKHSWTPARFSGSLLGGKAALTLSGAQPEDEAEYYCLLDYGGTFVFGGGTKLTVLGQPKAAPSVTLFPPSSEELQANKATLVCLISDFYPGAVTVAWKADSSPVKAGVETTTPSKQSNNKYAASSYLSLTPEQWKSHRSYSCQVTHEGSTVEKTVAPTECS
notes: DVD-Ig: outer MAK195-21, inner AE10-6 AM3; heavy chain row is printed MAK195-1-GS-AE10-6 AM3; also called MAK195-1-GS-AE10-6 AM3
B11: MAK195-21-GS-AE10-6 AM8 (bispecific antibody, human IgG1, lambda, L234A L235A)
heavy: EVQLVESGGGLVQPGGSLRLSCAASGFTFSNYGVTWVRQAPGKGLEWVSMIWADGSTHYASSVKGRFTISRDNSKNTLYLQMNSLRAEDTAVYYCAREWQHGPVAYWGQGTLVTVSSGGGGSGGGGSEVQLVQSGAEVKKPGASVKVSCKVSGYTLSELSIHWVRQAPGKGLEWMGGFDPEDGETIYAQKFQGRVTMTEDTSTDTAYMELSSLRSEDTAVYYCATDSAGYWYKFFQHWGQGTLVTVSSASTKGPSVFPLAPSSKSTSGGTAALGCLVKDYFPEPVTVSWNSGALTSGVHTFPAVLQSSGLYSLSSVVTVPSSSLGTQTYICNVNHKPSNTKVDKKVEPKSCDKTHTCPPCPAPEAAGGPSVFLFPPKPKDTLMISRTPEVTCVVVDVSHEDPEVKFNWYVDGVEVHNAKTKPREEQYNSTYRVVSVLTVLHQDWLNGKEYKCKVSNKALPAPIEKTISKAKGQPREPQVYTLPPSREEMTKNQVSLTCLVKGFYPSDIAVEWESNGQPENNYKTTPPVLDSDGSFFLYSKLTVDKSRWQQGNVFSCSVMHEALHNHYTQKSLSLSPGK
light: B10 light with T213S
notes: DVD-Ig: outer MAK195-21, inner AE10-6 AM8
B12: MAK195-21-GS-AE10-6 AM7 (bispecific antibody, human IgG1, lambda, L234A L235A)
heavy: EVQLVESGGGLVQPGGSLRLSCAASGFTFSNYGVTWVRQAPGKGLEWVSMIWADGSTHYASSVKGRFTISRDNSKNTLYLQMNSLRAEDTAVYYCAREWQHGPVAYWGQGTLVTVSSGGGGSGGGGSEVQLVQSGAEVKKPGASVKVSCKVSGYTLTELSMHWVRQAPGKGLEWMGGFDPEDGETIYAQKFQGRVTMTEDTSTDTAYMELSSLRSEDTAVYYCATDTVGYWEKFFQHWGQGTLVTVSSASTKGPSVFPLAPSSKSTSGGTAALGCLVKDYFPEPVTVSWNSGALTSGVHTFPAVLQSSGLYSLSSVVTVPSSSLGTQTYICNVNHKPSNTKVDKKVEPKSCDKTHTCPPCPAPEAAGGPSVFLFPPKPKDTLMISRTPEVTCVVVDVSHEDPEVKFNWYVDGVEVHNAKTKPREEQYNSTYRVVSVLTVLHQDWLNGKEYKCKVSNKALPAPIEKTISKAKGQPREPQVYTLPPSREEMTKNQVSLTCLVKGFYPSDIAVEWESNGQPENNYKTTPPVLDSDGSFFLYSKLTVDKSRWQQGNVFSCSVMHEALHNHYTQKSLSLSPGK
light: B10 light with A144T, T213R
notes: as for B8

What follows are binders tested against T1, recombinant rat sclerostin (assay: SPR).
Experimental: (§1) The binding of antibodies or anti-sclerostin-TNF DVD to purified recombinant human, cynomolgus monkey (cyno), rat and mouse sclerostin and TNFα was determined by surface plasmon resonance-based measurements with a Biacore T100 or T200 instruments (GE Healthcare Life Sciences, Piscataway, N.J., USA) using running HBS-EP+ (10 mM HEPES [pH 7.4], 150 mM NaCl, 3 mM EDTA, and 0.005% surfactant P20) containing additional 150 mM NaCl, and/or 10 mg/ml carboxymethyl dextran, 0.1 mg/ml BSA at 25° C. All chemicals were obtained from GE Healthcare Life Sciences, Piscataway, N.J., USA or otherwise from a different source as described in the text. Approximately 10,000 RU (or 3000 RU when CM3 chip was used) of goat anti-mouse or anti-human IgG (Fcγ) fragment specific polyclonal antibody (Pierce Biotechnology Inc, Rockford, Ill.) diluted in 10 mM sodium acetate (pH 4.5) was directly immobilized across a CM5 (or CM3) research grade biosensor chip using a standard amine coupling kit according to manufacturer's instructions and procedures at 15 μg/ml. Unreacted moieties on the biosensor surface were blocked with ethanolamine. Modified carboxymethyl dextran surface in flowcells 2, 3 and 4 were used as a reaction surface. Modified carboxymethyl dextran in flow cell 1 was used as the reference surface. Biaevaluation T100 software version 2.0.2, GE Healthcare Life Sciences was used to simultaneously fit association and dissociation phases of all injections (using 1:1 fit analysis with local Rmax). Purified antibodies were diluted in running buffer for capture across goat anti-mouse or anti-human IgG specific reaction surfaces. Antibodies to be captured as a ligand (1 μg/ml) were injected over reaction matrices at a flow rate of 10 μl/minute. The association and dissociation rate constants, kon (unit M-1 s-1) and koff (unit s-1) were determined under a continuous flow rate of 50 μl/minute. […] At the end of each cycle the surfaces were regenerated with 10 s injection of 50 mM NaOH or/and by 10 s injection of 10 mM Glycine pH1.5 at a flow rate of 100 μl/min.

Kd [pM] | koff [s⁻¹] | kon [M⁻¹ s⁻¹] | Binder
10 | 1.9e-05 | 1.9e+06 | B1
34 | 5.9e-05 | 1.8e+06 | B2
56 | 7.5e-05 | 1.3e+06 | B3
26 | 4.6e-05 | 1.8e+06 | B4
98 | 0.00018 | 1.9e+06 | B5
120 | 0.00088 | 7.6e+06 | B6

The binders below were run against T2, recombinant mouse sclerostin (assay: SPR).
Experimental: as §1

Kd [pM] | koff [s⁻¹] | kon [M⁻¹ s⁻¹] | Binder
5.5 | 5.5e-05 | 1e+07 | B1
7.4 | 8.2e-05 | 1.1e+07 | B2
16 | 0.00011 | 7e+06 | B3
9.3 | 0.00012 | 1.3e+07 | B4
27 | 0.00087 | 3.2e+07 | B5
94 | 0.002 | 2.1e+07 | B6

Each binder was assayed against T3, recombinant human sclerostin (assay: SPR).
Experimental: as §1

Kd [pM] | koff [s⁻¹] | kon [M⁻¹ s⁻¹] | Binder
0.54 | 3.8e-06 | 7e+06 | B1
1.3 | 9.7e-06 | 7.4e+06 | B2
3 | 1.3e-05 | 4.3e+06 | B3
0.3 | 2.1e-06 | 7.1e+06 | B4
1.3 | 1.2e-05 | 9.1e+06 | B5
8.1 | 2.7e-05 | 3.4e+06 | B6
< 3.7 | < 1e-06 | 270000 | B7
< 1.5 | < 1e-06 | 680000 | B8
17 | 4.9e-06 | 280000 | B9
8.2 | 1.7e-05 | 2.1e+06 | B10
3.6 | 7.9e-06 | 2.2e+06 | B11
10 | 2e-05 | 2e+06 | B12

Each binder was assayed against T4, recombinant cynomolgus monkey sclerostin (cynomolgus monkey) (assay: SPR).
T4 construct: also called cyno sclerostin; Cyno sclerostin
Experimental: as §1

Kd [pM] | koff [s⁻¹] | kon [M⁻¹ s⁻¹] | Binder
0.24 | 1.6e-06 | 6.9e+06 | B1
0.39 | 3e-06 | 7.7e+06 | B2
1.5 | 7.6e-06 | 5.2e+06 | B3
< 0.14 | < 1e-07 | 7e+06 | B4
0.88 | 7e-06 | 7.9e+06 | B5
7.1 | 2.6e-05 | 3.6e+06 | B6
61 | 3e-05 | 500000 | B7
130 | 5e-05 | 390000 | B9
